{"source": "patent US7524668", "molecular_target": "recombinant soluble human beta-secretase from CHO-K1 cells (Hu_Asp-2LdeltaTM(His)6) (UniProt P56817)", "sequence (P56817 other isoform, or with tags, fused parts or gaps mutant)": "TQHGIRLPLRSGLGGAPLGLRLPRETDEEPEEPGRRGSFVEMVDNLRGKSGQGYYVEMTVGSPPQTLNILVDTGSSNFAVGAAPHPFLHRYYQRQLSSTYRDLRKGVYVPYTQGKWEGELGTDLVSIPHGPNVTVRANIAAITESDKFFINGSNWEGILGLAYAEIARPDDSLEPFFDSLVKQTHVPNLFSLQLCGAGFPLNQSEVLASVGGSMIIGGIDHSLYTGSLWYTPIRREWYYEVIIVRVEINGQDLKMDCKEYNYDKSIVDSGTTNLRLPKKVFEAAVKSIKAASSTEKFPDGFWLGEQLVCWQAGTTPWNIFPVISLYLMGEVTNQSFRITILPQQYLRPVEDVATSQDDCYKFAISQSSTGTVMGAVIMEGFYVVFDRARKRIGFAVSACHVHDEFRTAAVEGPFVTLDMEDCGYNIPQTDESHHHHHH"}
{"substance": "HIV-1 protease", "values": [{"measurement": "cleavage of the F39-V40 bond (N-terminal sequence after incubation; pH 5.7, 0.5 M urea, 5% HIV protease, 1 hour at 37 C)", "value": "nearly 100% cleavage of the F^39-V^40 bond occurred"}]}
